# Laboratory results as given in patent publication US6984380B1, “Treatment of diseases involving faulty MHC class I antigen complex presentation” (priority 1991, dated 2006).
# Where no end group is shown, it is not given here.
# What was measured:
# [1] = target: T1, H-2K^d class I molecule on NOD splenocytes (Mus musculus, UniProt P01902); type: cell-based
# T1 construct: Female NOD splenocytes were cultured with a K^d allele-specific peptide in an attempt to load the empty peptide groove of this class I molecule; endogenous in cells; host or cells: primary splenocytes (macrophage/monocyte and lymphocyte gates) from female NOD mice and control B10.D2 (R103) mice
# T1 sequence (P01902 22-368): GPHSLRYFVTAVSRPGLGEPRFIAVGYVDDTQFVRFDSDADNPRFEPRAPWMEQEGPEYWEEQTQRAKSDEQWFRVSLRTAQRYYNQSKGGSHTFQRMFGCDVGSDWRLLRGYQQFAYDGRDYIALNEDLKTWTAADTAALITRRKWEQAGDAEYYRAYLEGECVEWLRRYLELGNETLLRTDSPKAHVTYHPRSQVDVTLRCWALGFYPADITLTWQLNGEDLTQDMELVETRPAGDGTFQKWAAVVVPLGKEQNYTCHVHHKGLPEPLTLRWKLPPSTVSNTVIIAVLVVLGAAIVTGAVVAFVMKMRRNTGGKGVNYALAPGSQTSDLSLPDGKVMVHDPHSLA
# T1 sequence (P01887 21-119 partner): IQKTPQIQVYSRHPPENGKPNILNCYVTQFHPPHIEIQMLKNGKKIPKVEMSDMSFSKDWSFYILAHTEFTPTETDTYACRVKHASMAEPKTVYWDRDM
sequence,measurement,setting,value
TYQRTRALV [K^d-specific peptide],mean fluorescence attributable to K^d,"[1]; control class I-identical B10.D2 (R103) splenocytes, peptide 480 μM, 5 hours at 37° C.",no change in mean fluorescence
same,"surface expression of K^d (mean fluorescence, FACS)","[1]; female NOD mouse macrophages, peptide 480 μM, 5-hour incubation at 37° C.",stabilized the surface expression of K^d
same,dose dependence of restoration and stabilization of K^d expression,[1]; female NOD splenocytes,dose dependent
same,optimal peptide concentration for restoration and stabilization of K^d expression,[1]; female NOD splenocytes,greater than 240 μM
same,susceptibility to CTL lysis after incubation with peptide,H-2K^d target cells,did restore susceptibility to CTLs
same,susceptibility to CTL lysis after prior incubation with peptide,H-2K^d target cells,Neither the susceptibility of control BALB/c targets nor that of NOD male targets to CTL lysis was affected
